Experimental data from paper PMC4043820.

Columns and labels:
[1] = molecular target: OsWRKY53SD S43D;S72D;S77D;S89D;S96D;S108D (Oryza sativa (rice)) (UniProt A7BEY7); assay: EMSA; conditions: 12 mM HEPES-KOH pH 8.0, 60 mM KCl, 4 mM MgCl2, 1 mM EDTA, 12% glycerol, 1 mM DTT, 2.5 mM PMSF, 0.1 ug protein in 20 ul, 20 min on ice; 6% PAGE in 1x TBE at …
[2] = molecular target: OsWRKY53SA S43A;S72A;S77A;S89A;S96A;S108A (Oryza sativa (rice)) (UniProt A7BEY7); assay: EMSA; conditions: 12 mM HEPES-KOH pH 8.0, 60 mM KCl, 4 mM MgCl2, 1 mM EDTA, 12% glycerol, 1 mM DTT, 2.5 mM PMSF, 0.1 ug protein in 20 ul, 20 min on ice; 6% PAGE in 1x TBE at …
Sequence of OsWRKY53SA S43A;S72A;S77A;S89A;S96A;S108A (Oryza sativa (rice)) (A7BEY7 entry or part of it S43A S72A S77A S89A S96A S108A): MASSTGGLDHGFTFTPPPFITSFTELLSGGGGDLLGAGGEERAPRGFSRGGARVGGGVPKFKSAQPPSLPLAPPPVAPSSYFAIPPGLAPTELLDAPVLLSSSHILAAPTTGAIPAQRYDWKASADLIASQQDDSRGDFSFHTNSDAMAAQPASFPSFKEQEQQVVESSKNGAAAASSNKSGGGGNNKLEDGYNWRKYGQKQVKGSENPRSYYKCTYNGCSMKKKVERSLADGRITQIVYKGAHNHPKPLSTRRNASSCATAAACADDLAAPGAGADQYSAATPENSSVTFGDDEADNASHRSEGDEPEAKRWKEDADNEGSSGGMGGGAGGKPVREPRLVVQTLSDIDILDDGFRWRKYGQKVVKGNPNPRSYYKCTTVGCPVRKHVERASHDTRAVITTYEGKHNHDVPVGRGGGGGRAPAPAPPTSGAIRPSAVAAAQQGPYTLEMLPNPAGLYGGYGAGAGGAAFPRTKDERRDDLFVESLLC

Sequence of OsWRKY53SD S43D;S72D;S77D;S89D;S96D;S108D (Oryza sativa (rice)) (A7BEY7 entry or part of it S43D S72D S77D S89D S96D S108D): as the sequence (A7BEY7 entry or part of it S43A S72A S77A S89A S96A S108A) above, with A43D, A72D, A77D, A89D, A96D, A108D counted along it

**Q.** Which results are given for “TTTGGGGATGCTTCGGCGAAGGGGGTGAGGTCAAAGCTCGTGCGGTTTGACCGGTCAGACGAGGCGGCTGAGGCTCGCGC (double strand) [W-box probe (W)]”?
**A.** binding [1]: binds; binding [2]: binds
